Key:
[1] = molecular target: [14C]oleoyl-ACP made from E. coli acyl carrier protein (E. coli) (UniProt P0A6A8); conditions: scale: times the E. coli background thioesterase activity
[2] = molecular target: lauryl-ACP (12:0-ACP); conditions: scale: pmoles per min per microliter of cell lysate
[3] = molecular target: caproyl-ACP (10:0-ACP); conditions: scale: pmoles per min per microliter of cell lysate
[4] = molecular target: [14C]oleoyl-ACP made from E. coli acyl carrier protein (E. coli) (UniProt P0A6A8); conditions: scale: pmoles per min per microliter of cell lysate
[5] = molecular target: [14C]stearoyl-ACP made from E. coli acyl carrier protein (E. coli) (UniProt P0A6A8)
[6] = molecular target: [14C]oleoyl-ACP made from E. coli acyl carrier protein (E. coli) (UniProt P0A6A8)

“β-galactosidase fusion protein of the Brassica napus oleoyl-ACP thioesterase (p5C insert in pBluescript SK, correct orientation) (enzyme)” gave an Oleoyl-ACP thioesterase activity [1] of 26.

“β-galactosidase fusion protein of the Cuphea viscossisima oleoyl-ACP thioesterase precursor (p1A insert in pBluescript) (enzyme)” was tested, and the activity per microliter of cell lysate [2] was 0.1, the activity per microliter of cell lysate [3] was 0.05 and the activity per microliter of cell lysate [4] was 15.5.

B1: soybean seed acyl-ACP thioesterase, purified from developing soybean seeds (Glycine max cultivar Wye) (enzyme)
chain: RVEADPGTLADRLRVGSLTEDGLSYKEKFIVRSYEVGINKTATVETIANLLQEVGCNHAQSVGYSTDGFATTPTMRKLRLIWVTARMHIEIYKYPAWSDIVEIETWCQGEGRVGTRRDFILKDYATDEVIGRATSKWVMMNQDTRRLQKVSDDVKEEYLVFCPREPRLAIPEADSNSLKKIPKLEDPAQYSRLGLVPRRADLDMNQHVNNVTYIGWVLESMPQEIIDSHELQSITLDYRRECGQHDIVDSLTSVEAIQGGAEAVPELKGTNGSATAREDKHEHQQFLHLLRLSTEGLEINRGRTEWRKKAPR
For B1, the Net pmol/µL/min (standard acyl-ACP thioesterase assay) [5] was 4.07 pmol/µL/min.

B2: soybean seed acyl-ACP thioesterase expressed from the phaseolin:soybean thioesterase transgene (pZPHTE1) in Brassica napus line 241 (enzyme)
chain: RVEADPGTLADRLRVGSLTEDGLSYKEKFIVRSYEVGINKTATVETIANLLQEVGCNHAQSVGYSTDGFATTPTMRKLRLIWVTARMHIEIYKYPAWSDIVEIETWCQGEGRVGTRRDFILKDYATDEVIGRATSKWVMMNQDTRRLQKVSDDVKEEYLVFCPREPRLAIPEADSNSLKKIPKLEDPAQYSRLGLVPRRADLDMNQHVNNVTYIGWVLESMPQEIIDSHELQSITLDYRRECGQHDIVDSLTSVEAIQGGAEAVPELKGTNGSATAREDKHEHQQFLHLLRLSTEGLEINRGRTEWRKKAPR
Molecule B2 has a Thioesterase Activity (nmole min^-1 embryo^-1), nmoles of 18:1-ACP hydrolyzed per embryo per minute (nmole min^-1 embryo^-1) [6] of 4.53.
